The target of assay [1] is mRFP-tagged CASK I672V (human) (UniProt O14936). Put plainly: co-IP; HEK293T cells cotransfected, lysed in RIPA buffer 24 h after transfection; mRFP-tagged CASK precipitated with magnetic RFP-Trap beads, 2 h at 4°C, five washes in RIPA; Western blot.
Assay [2] has as its target T1, GST-tagged C-terminal domain of CNTNAP2, Q9UHC6.
T1 chain: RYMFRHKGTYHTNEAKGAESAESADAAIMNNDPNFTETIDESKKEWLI
Put plainly: pull-down. The settings on record: chain shown with the change; n = 4; His6-signals normalized to GST-signals derived from the same blot; parent: est. 3.1; read off a plot.

Assay [3] deals with T2, GST-tagged C-terminal domain of Nrxn1β, Q63373.
T2 chain: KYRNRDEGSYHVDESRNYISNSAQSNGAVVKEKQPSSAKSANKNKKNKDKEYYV
Put plainly: pull-down. The settings on record: chain shown with the change; n = 4; His6-signals normalized to GST-signals derived from the same blot; parent: est. 2.9; read off a plot.

Assay [4] concerns the target T3, GST-tagged C-terminal domain of SALM1, Q9ULH4.
T3 chain: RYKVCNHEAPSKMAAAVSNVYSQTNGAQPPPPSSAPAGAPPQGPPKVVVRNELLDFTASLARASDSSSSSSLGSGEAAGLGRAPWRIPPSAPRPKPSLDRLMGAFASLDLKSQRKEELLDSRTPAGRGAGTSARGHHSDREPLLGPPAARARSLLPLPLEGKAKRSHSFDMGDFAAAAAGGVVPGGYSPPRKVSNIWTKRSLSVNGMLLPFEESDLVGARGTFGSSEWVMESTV
Put plainly: pull-down. The settings on record: chain shown with the change; n = 4; His6-signals normalized to GST-signals derived from the same blot; parent: est. 0.85; read off a plot.

We go through four molecules from PMC12666738.

Molecule “HA-tagged Neurexin-1β (from UniProt Q63373 47-468) (natural protein)” came in with a reduction of bound Nrxn1β against CASK WT in assay [1] of 50%.

B1: His6-SUMO-tagged CASK PSG supramodule WT, O14936-2 Y723C (protein)
chain: MADDDVLFEDVYELCEVIGKGPFSVVRRCINRETGQQFAVKIVDVAKFTSSPGLSTEDLKREASICHMLKHPHIVELLETYSSDGMLYMVFEFMDGADLCFEIVKRADAGFVYSEAVASHYMRQILEALRYCHDNNIIHRDVKPHCVLLASKENSAPVKLGGFGVAIQLGESGLVAGGRVGTPHFMAPEVVKREPYGKPVDVWGCGVILFILLSGCLPFYGTKERLFEGIIKGKYKMNPRQWSHISESAKDLVRRMLMLDPAERITVYEALNHPWLKERDRYAYKIHLPETVEQLRKFNARRKLKGAVLAAVSSHKFNSFYGDPPEELPDFSEDPTSSGLLAAERAVSQVLDSLEEIHALTDCSEKDLDFLHSVFQDQHLHTLLDLYDKINTKSSPQIRNPPSDAVQRAKEVLEEISCYPENNDAKELKRILTQPHFMALLQTHDVVAHEVYSDEALRVTPPPTSPYLNGDSPESANGDMDMENVTRVRLVQFQKNTDEPMGITLKMNELNHCIVARIMHGGMIHRQGTLHVGDEIREINGISVANQTVEQLQKMLREMRGSITFKIVPSYRTQSSSCERDSPSTSRQSPANGHSSTNNSVSDLPSTTQPKGRQIYVRAQFEYDPAKDDLIPCKEAGIRFRVGDIIQIISKDDHNWWQGKLENSKNGTAGLIPSPELQEWRVACIAMEKTKQEQQASCTWFGKKKKQYKDKYLAKHNADLVTCEEVVKLPAFKRKTLVLLGAHGVGRRHIKNTLITKHPDRFAYPIPHTTRPPKKDEENGKNYYFVSHDQMMQDISNNEYLEYGSHEDAMYGTKLETIRKIHEQGLIAILDVEPQALKVLRTAEFAPFVVFIAAPTITPGLNEDESLQRLQKESDILQRTYAHYFDLTIINNEIDETIRHLEEAVELVCTAPQWVPVSWVY
B1: the results for the response in assay [2], in assay [3] and in assay [4] were 0.45, 0.9 and 0.15, respectively.

B2: His6-SUMO-tagged CASK PSG supramodule WT, O14936-2 P673L (protein)
chain: MADDDVLFEDVYELCEVIGKGPFSVVRRCINRETGQQFAVKIVDVAKFTSSPGLSTEDLKREASICHMLKHPHIVELLETYSSDGMLYMVFEFMDGADLCFEIVKRADAGFVYSEAVASHYMRQILEALRYCHDNNIIHRDVKPHCVLLASKENSAPVKLGGFGVAIQLGESGLVAGGRVGTPHFMAPEVVKREPYGKPVDVWGCGVILFILLSGCLPFYGTKERLFEGIIKGKYKMNPRQWSHISESAKDLVRRMLMLDPAERITVYEALNHPWLKERDRYAYKIHLPETVEQLRKFNARRKLKGAVLAAVSSHKFNSFYGDPPEELPDFSEDPTSSGLLAAERAVSQVLDSLEEIHALTDCSEKDLDFLHSVFQDQHLHTLLDLYDKINTKSSPQIRNPPSDAVQRAKEVLEEISCYPENNDAKELKRILTQPHFMALLQTHDVVAHEVYSDEALRVTPPPTSPYLNGDSPESANGDMDMENVTRVRLVQFQKNTDEPMGITLKMNELNHCIVARIMHGGMIHRQGTLHVGDEIREINGISVANQTVEQLQKMLREMRGSITFKIVPSYRTQSSSCERDSPSTSRQSPANGHSSTNNSVSDLPSTTQPKGRQIYVRAQFEYDPAKDDLIPCKEAGIRFRVGDIIQIISKDDHNWWQGKLENSKNGTAGLILSPELQEWRVACIAMEKTKQEQQASCTWFGKKKKQYKDKYLAKHNADLVTYEEVVKLPAFKRKTLVLLGAHGVGRRHIKNTLITKHPDRFAYPIPHTTRPPKKDEENGKNYYFVSHDQMMQDISNNEYLEYGSHEDAMYGTKLETIRKIHEQGLIAILDVEPQALKVLRTAEFAPFVVFIAAPTITPGLNEDESLQRLQKESDILQRTYAHYFDLTIINNEIDETIRHLEEAVELVCTAPQWVPVSWVY
Consider B2, for which the figures for the response in assay [2], in assay [3] and in assay [4] were 0.45, 1 and 0.15, respectively.

B3: His6-SUMO-tagged CASK PSG supramodule WT, O14936-2 G521V (protein)
chain: MADDDVLFEDVYELCEVIGKGPFSVVRRCINRETGQQFAVKIVDVAKFTSSPGLSTEDLKREASICHMLKHPHIVELLETYSSDGMLYMVFEFMDGADLCFEIVKRADAGFVYSEAVASHYMRQILEALRYCHDNNIIHRDVKPHCVLLASKENSAPVKLGGFGVAIQLGESGLVAGGRVGTPHFMAPEVVKREPYGKPVDVWGCGVILFILLSGCLPFYGTKERLFEGIIKGKYKMNPRQWSHISESAKDLVRRMLMLDPAERITVYEALNHPWLKERDRYAYKIHLPETVEQLRKFNARRKLKGAVLAAVSSHKFNSFYGDPPEELPDFSEDPTSSGLLAAERAVSQVLDSLEEIHALTDCSEKDLDFLHSVFQDQHLHTLLDLYDKINTKSSPQIRNPPSDAVQRAKEVLEEISCYPENNDAKELKRILTQPHFMALLQTHDVVAHEVYSDEALRVTPPPTSPYLNGDSPESANGDMDMENVTRVRLVQFQKNTDEPMGITLKMNELNHCIVARIMHVGMIHRQGTLHVGDEIREINGISVANQTVEQLQKMLREMRGSITFKIVPSYRTQSSSCERDSPSTSRQSPANGHSSTNNSVSDLPSTTQPKGRQIYVRAQFEYDPAKDDLIPCKEAGIRFRVGDIIQIISKDDHNWWQGKLENSKNGTAGLIPSPELQEWRVACIAMEKTKQEQQASCTWFGKKKKQYKDKYLAKHNAVFDQLDLVTYEEVVKLPAFKRKTLVLLGAHGVGRRHIKNTLITKHPDRFAYPIPHTTRPPKKDEENGKNYYFVSHDQMMQDISNNEYLEYGSHEDAMYGTKLETIRKIHEQGLIAILDVEPQALKVLRTAEFAPFVVFIAAPTITPGLNEDESLQRLQKESDILQRTYAHYFDLTIINNEIDETIRHLEEAVELVCTAPQWVPVSWVY
Take B3: the response was determined as 1.5 in assay [2], 0.9 in assay [3] and 0.7 in assay [4].
